Reference: patent publication US20070134256A1 (US Dept. of Health and Human Services, published 2007)
Where two headings read alike, the source gives them in different places.

How the values were obtained:
[1] = target: T1, dengue type 3 virus (DENV-3), strain H87, virions (dengue type 3 virus, UniProt P27915 281-773; P27915 115-280); assay: cell-based or functional assay
[2] = target: T2, dengue type 1 virus (DENV-1), Western Pacific strain, virions (dengue type 1 virus, UniProt P17763 281-775; P17763 115-280); assay: cell-based or functional assay
[3] = target: T3, dengue type 2 virus (DENV-2), prototype New Guinea C strain, virions (dengue type 2 virus, UniProt P14340 281-775; P14340 115-280); assay: cell-based or functional assay
[4] = target: T4, dengue type 4 virus (DENV-4), strain 814669, virions (dengue type 4 virus, UniProt P09866 280-774; P09866 114-279); assay: cell-based or functional assay
[5] = target: T1, dengue type 3 virus (DENV-3), strain …; assay: ELISA, virion-coated plate, Fab from ~140 µg/ml
[6] = target: T2, dengue type 1 virus (DENV-1), Western …; assay: ELISA, virion-coated plate, Fab from ~140 µg/ml
[7] = target: T3, dengue type 2 virus (DENV-2), prototype …; assay: ELISA, virion-coated plate, Fab from ~140 µg/ml
[8] = target: T4, dengue type 4 virus (DENV-4), strain …; assay: ELISA, virion-coated plate, Fab from ~140 µg/ml
[9] = target: T5, DENV-4 E glycoprotein (dengue type 4 virus, UniProt P09866 280-774); assay: radioimmunoprecipitation of E expressed alone by recombinant vaccinia virus
T5 construct: also called vDENV-4 E product

[10] = target: T1, dengue type 3 virus (DENV-3), strain …; assay: ELISA, virion-coated plate, Fab from ~300 µg/ml
[11] = target: T2, dengue type 1 virus (DENV-1), Western …; assay: ELISA, virion-coated plate, Fab from ~300 µg/ml
[12] = target: T3, dengue type 2 virus (DENV-2), prototype …; assay: ELISA, virion-coated plate, Fab from ~300 µg/ml
[13] = target: T4, dengue type 4 virus (DENV-4), strain …; assay: ELISA, virion-coated plate, Fab from ~300 µg/ml
[14] = target: T4, dengue type 4 virus (DENV-4), strain …; assay: cell-based or functional assay; remark: listed apart in the source
[15] = target: DENV-4 prM glycoprotein (dengue type 4 virus, UniProt P09866 114-279); assay: radioimmunoprecipitation of prM expressed alone by recombinant vaccinia virus

Binder | PRNT50 titer [1] | PRNT50 titer [2] | PRNT50 titer [3] | PRNT50 titer [4] | ELISA titer of Fab binding [5] | ELISA titer of Fab binding [6] | ELISA titer of Fab binding [7] | ELISA titer of Fab binding [8] | binding result [9] | ELISA titer of Fab binding [10] | ELISA titer of Fab binding [11] | ELISA titer of Fab binding [12] | ELISA titer of Fab binding [13] | PRNT50 titer [14] | binding result [15]
chimpanzee Fab 2H7 (Fab, V domains shown) VH: EVQLLESGGGLVQPGGSRRLSCAASGFTISDNVMHWVRQAPGKGLEWVALIYSADSTHYADSVKGRFTISRDNSKNTLYLQMDGLRPEDTAVYYCAREYCTGGTCFAHFDYWGQGTLVTVSS VL: ELQMTQSPSSLSASVGDRVTITCRASQSITNYLSWYQQKPGKAPKLLISYSSTLQSGVPSRFSGSGSGTDFTLTISSLQPEDFATYYCHYGYGTHTFGPGTKVDIKR | 5.92 µg/mL | 0.26 µg/mL | 0.33 µg/mL | 7.26 µg/mL | 3.6 log10 of reciprocal dilution | 4.1 log10 of reciprocal dilution | 3.8 log10 of reciprocal dilution | 3.8 log10 of reciprocal dilution | – | – | – | – | – | – | –
chimpanzee Fab 3C1 (Fab, V domains shown) VH: EVQLLESGAEVKKPGGSVKVSCKVSGGTLSSYGISWVRQAPGQGPEWMGVIIPIRGTANYAQKFQGRVTYTADESTSTVYMELSSLRSEDTAVYYCATGRRGRYPTGSFDYWGQGALVTVSS VL: ELQMTQSPSTLSASVGDRVTVTCRASEDLNKWLAWYQQKPGKAPKLLIYKASSLESGVPSRFSGSGSGTEFTLTISSLQPDDFATYYCQQYQSYPYTFGPGTKLEIKR | – | – | – | – | – | – | – | – | no binding | 1.3 log10 of reciprocal dilution | 1.3 log10 of reciprocal dilution | 3.11 log10 of reciprocal dilution | 3.71 log10 of reciprocal dilution | > 200 µg/mL | –
chimpanzee Fab 1A10 (Fab, V domains shown) VH: VQLLEESGAEVKKPGSSVKVSCKVSGGTFSRNPISWVRQAPGQGLEWMGVIVPIVGTTKHAQKFQGRVTIIADESTSTAYMELSSLRSEDTAVYYCATYYADGSSYSEYWGQGTLVTVSS VL: ELQMTQSPLSLSVAPGQPASISCKSSQSLLHSDGNTYLFWYLQKSGQSPQLLIYGLSNRASGVPDRFSGSGSGTDFTLKISQVEAEDVGVFYCMQGTQLPYTFGQGTKLEIKR | 26.3 µg/mL | 0.94 µg/mL | 5.26 µg/mL | 12.6 µg/mL | 3.6 log10 of reciprocal dilution | 4.1 log10 of reciprocal dilution | 3.8 log10 of reciprocal dilution | 3.8 log10 of reciprocal dilution | – | – | – | – | – | – | –
chimpanzee Fab 1B2 (Fab, V domains shown) VH: EVQLLESGPGLVKPSQTLSLTCAVSGGSITSDHYFWSWMRQAPGRGLEWIGYISYRGTTYYNPSLKSRVTMSVTAAKNTLYLQMDGLRPEDTAVYYCARASVTAGMPAAGTLDHWGQGTLVTVSS VL: ELQMTQSPSSLSASVGDRVTITCRASQGISSELNWYQQKPGKAPKLLIYDASSLESGVPSRFSGSGSGTDFTLTISSLQPEDFATYYCQHFNSFPWTFGQGTKLEIKR | > 100 µg/mL | 0.5 µg/mL | 3.13 µg/mL | 29.2 µg/mL | 3.8 log10 of reciprocal dilution | 3.9 log10 of reciprocal dilution | 3.8 log10 of reciprocal dilution | 3.8 log10 of reciprocal dilution | – | – | – | – | – | – | –
chimpanzee Fab 7G4 (Fab, V domains shown) VH: EVQLLESGGGLVQPGGSLTLSCAASGFTFSSYWMHWVRQAPGKGPEWVALIKKDGSEKYYAESVKGRFTISRDNAKNSLYLQMNSLRAEDTAVYYCTRRITTLTVISDAFDIWGQGTMVTVSS VL: ELTQSPSTLSASVGDRVTITCRASQGISSWLAWYQQKPGKAPKFLIYKASSLESGVPSRFSGSGSGTEFTLTISSLQPDDFATYYCQQYGSYPLTFGPGTKVDIKR | – | – | – | – | – | – | – | – | – | 4.01 log10 of reciprocal dilution | 4.01 log10 of reciprocal dilution | 4.01 log10 of reciprocal dilution | 4.01 log10 of reciprocal dilution | 121 µg/mL | no binding
chimpanzee Fab 3A2 (Fab, V domains shown) VH: VQLLEQSGGGLVQPGGSRRLSCAVSGFTISDNVMHWVRQAPGKGLEWVALIYSADTTHYADSVKGRFTISRDNSKNTLYLQMDSLRPEDTAVYYCAREYCTGGTCFAHFDYWGQGTLVTVSS VL: ELTQSPSSVSASVGDTVTIACRASQSITNYLSWYQQKPGKAPKLLIYHASTLQSGIPSRFSGSGSGTDFTLTISSLQPDDFATYYCHYGYGTHTFGQGTKLEIKR | 2.99 µg/mL | 0.37 µg/mL | 1.33 µg/mL | 4.71 µg/mL | 3.8 log10 of reciprocal dilution | 4.1 log10 of reciprocal dilution | 3.8 log10 of reciprocal dilution | 3.8 log10 of reciprocal dilution | – | – | – | – | – | – | –
chimpanzee Fab 3E4 (Fab, V domains shown) VH: VQLLEQSGAEVKKPGGSVKVSCKVSGGTFSRNPISWVRQAPGQGLEWMSVIVPIVGTTKHAQKFQGRVTITADESTSTAYMELSSLRSEDTAVYYCATYRRYADVSSYSEYWGQGTLVTVSS VL: ELTQSPLSLPVTLGQPASISCRSSQNLVHSDGNTYLSWIQQRPGQPPRLLIYKVSNRDSGVPDRFSGSGAGTDFTLKITRVEAEDVGLYYCVQGVQFPITFGQGTKLEIKR | > 100 µg/mL | 42.7 µg/mL | > 100 µg/mL | 40.5 µg/mL | 3.6 log10 of reciprocal dilution | 4 log10 of reciprocal dilution | 3.8 log10 of reciprocal dilution | 3.8 log10 of reciprocal dilution | – | 4.61 log10 of reciprocal dilution | 4.61 log10 of reciprocal dilution | 4.31 log10 of reciprocal dilution | 4.61 log10 of reciprocal dilution | 91 µg/mL | no binding
